Experimental data reported in patent US9422369 (QUEEN MARY AND WESTFIELD COLLEGE, dated 2016).
Ends that are not written are not given here.

Target: T1, peptide antigen EDGIKRIQDDC-biotin (from AT1-receptor N-terminal region) (rat (sequence also found in human and …))
T1 construct: Coated on Maxisorp plates for the ELISA; also called antigenic peptide; biotinylated peptide antigen
T1 peptide: EDGIKRIQDDC-biotin
Experiment: ELISA, coated EDGIKRIQDDC-biotin, anti-His-tag HRP detection; reference is the murine scFv
Description: IgM for comparative binding studies was purified as previously described for cellular invasion studies. The extinction coefficient used for IgM was 1.18 (Johnstone A, Thorpe R. *Immunochemistry in practice*. 2nd ed. Oxford: Blackwell Scientific Publications (1987)). Testing of Antigen Binding Using ELISA Enzyme-linked immunosorbant assays (ELISAs) were carried out in Maxisorp 96-well plates coated with Peptide antigen […]-biotin (SEQ ID NO: 14) (2-8 ug/ml in carbonate buffer pH 9.6) overnight at 4 or 37 C. The coated wells were blocked using 1% alkaline soluble casein (Blocking buffer) for 1 h at RT, then washed three times with PBS containing 0.1% v/v Tween 20. ScFv samples diluted between 1:1 to 1:100 in PBS-T were added and incubated for 1 h at RT before washing as before. A secondary HRP-conjugated anti-His-Tag antibody was then added (diluted 1:1000 in blocking buffer) for 1 h at RT. Wells were then washed three times in PBS-T then twice with PBS (without Tween 20). 100 µl of TMB substrate solution was added and colour was allowed to develop for 30 min, at which time 100 µl of 2M sulphuric acid was added to stop the reaction. Absorbance at 450 nm was read on a plate reading spectrophotometer. Protein concentrations were determined using an Eppendorf Biophotometer reading at 280 nm and using an extinction coefficient for the scFv of 1.7 as above.

B1: humanised scFv variant HuCY, His-tagged (scFv, V domains shown)
VH: QVQLVQSGPELVKPGASVKISCKASGYSFTGYNMNWVKQAPGKSLEWIGNIDPYYGGTTYNQKFKGKATLTVDKSSSTAYMQLKSLRSEDTAVYYCAREVDYWGQGTTVTVSS
notes: Resurfaced variant of 12D, changed only in the framework regions; not shown: C-terminal His-tag from the expression vector
fold binding in ELISA against the murine scFv: 5 fold
